Data on 8 substances can be found in publication PMC11065761.

Holding throughout (assay): SPR
For orientation: In SPR one partner is held on a chip, and binding of the other changes the refractive index at the surface.

Assay [1] concerns the target C3b.
For assay [2], the target named is C4b biotinylated at the free sulfhydryl group of the thioester moiety.
Assay [3] addresses C3b. This is another data set of the same source.
Assay [4] addresses C3d (UniProt P01024).
The target of assay [5] is C4b (amine coupled).

Where two headings read alike, the source gives them in different places.

Chain of C3d (P01024 1002-1303): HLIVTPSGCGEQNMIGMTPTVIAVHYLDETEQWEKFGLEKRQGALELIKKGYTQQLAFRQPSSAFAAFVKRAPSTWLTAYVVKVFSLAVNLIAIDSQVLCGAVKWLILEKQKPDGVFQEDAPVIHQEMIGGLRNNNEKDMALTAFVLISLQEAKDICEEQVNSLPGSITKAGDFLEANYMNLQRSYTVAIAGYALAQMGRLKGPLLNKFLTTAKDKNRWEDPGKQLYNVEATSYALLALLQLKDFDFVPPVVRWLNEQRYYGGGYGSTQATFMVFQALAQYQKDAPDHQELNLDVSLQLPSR
Chain of Full-length factor H (FH) (P08603 19-1231): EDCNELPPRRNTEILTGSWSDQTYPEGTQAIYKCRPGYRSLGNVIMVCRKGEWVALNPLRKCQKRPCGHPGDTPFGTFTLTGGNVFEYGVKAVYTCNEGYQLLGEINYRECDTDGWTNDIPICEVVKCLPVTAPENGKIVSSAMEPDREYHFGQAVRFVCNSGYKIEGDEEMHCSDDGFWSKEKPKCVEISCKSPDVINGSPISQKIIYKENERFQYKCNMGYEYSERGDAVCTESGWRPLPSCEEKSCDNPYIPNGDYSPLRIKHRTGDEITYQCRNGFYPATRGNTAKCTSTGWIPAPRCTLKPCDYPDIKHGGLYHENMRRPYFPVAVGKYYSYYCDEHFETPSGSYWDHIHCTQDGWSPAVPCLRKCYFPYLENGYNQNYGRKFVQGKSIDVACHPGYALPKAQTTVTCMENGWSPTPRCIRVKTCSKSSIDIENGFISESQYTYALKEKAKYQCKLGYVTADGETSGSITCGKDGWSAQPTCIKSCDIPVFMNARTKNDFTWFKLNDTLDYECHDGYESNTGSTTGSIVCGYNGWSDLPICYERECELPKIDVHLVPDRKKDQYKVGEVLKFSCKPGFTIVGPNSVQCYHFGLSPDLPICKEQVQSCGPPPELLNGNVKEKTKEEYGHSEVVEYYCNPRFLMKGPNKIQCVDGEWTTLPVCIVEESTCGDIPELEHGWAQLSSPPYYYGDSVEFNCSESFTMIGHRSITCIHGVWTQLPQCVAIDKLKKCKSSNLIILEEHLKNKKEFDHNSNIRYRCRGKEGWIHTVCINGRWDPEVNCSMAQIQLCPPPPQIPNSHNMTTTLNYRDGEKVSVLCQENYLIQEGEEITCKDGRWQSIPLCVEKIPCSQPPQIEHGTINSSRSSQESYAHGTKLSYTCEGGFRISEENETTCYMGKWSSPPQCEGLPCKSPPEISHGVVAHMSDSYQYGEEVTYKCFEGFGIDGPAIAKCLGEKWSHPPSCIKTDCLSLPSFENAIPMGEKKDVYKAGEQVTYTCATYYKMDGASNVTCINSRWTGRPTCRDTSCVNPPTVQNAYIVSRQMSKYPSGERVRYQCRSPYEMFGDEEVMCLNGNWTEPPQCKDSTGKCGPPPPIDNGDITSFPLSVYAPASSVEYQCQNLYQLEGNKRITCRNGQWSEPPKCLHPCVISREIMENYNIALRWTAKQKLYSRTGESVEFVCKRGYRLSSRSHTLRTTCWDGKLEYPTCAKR

Consider “CR1(15–17), the middle CCP domains 15 to 17 of complement receptor 1 (domain or fragment)”, for which the equilibrium dissociation constant (Kd) (commonly the equilibrium constant for the complex coming apart) was determined as 900 nM in assay [1] and 7800 nM in assay [2]. Regarding “DAF(1–4), the first four CCP domains of decay accelerating factor (domain or fragment)”, the dissociation constant Kd in assay [1] came out at 11000 nM; in assay [2] it was 17600 nM. In assay [1], “DAF(1–4)FH(19–20)-LL (long linker, polyglycine linker of 13 residues)” had a Kd of 175 nM. For the substance “DAF(1–4)FH(19–20)-SL (short linker, "GPGG")”, the Kd in assay [1] came to 125 nM. The same measure, in the same setting: the value for “FH(19–20), the two C-terminal CCP domains of factor H (domain or fragment)” was 4700 nM. In assay [3], “Full-length factor H (FH) (from UniProt P08603 19-1231) (natural protein)” gave a Kd of 802 nM. “TriFu_6G (triple fusion complement inhibitor, 6 glycine residues between DAF and FH)”: the dissociation constant (Kd) in assay [3] turned out to be 59 nM; in assay [4], 22000 nM; in assay [1], 50 nM; in assay [5], 865 nM; in assay [2], 643 nM. “TriFu_13G (triple fusion complement inhibitor, 13 glycine residues between DAF and FH)” yielded a Kd in assay [3] of 25 nM.
